Results: publication PMC10903085 (Neurotherapeutics, 2023)

Target: His-Tau-Strep (human 4R2N Tau) (human, UniProt P10636-8 1-441)
Experiment: AlphaScreen or HTRF

binding result: binds
B1: GST-Fyn-SH3-Strep (human Fyn-SH3 domain) (domain or fragment)
chain: not shown
